Test results taken from IntAct's records for PubMed 24976139.

B1: Tyrosine-protein phosphatase non-receptor type 1 (Homo sapiens), P18031 (parent)
chain: MEMEKEFEQIDKSGSWAAIYQDIRHEASDFPCRVAKLPKNKNRNRYRDVSPFDHSRIKLHQEDNDYINASLIKMEEAQRSYILTQGPLPNTCGHFWEMVWEQKSRGVVMLNRVMEKGSLKCAQYWPQKEEKEMIFEDTNLKLTLISEDIKSYYTVRQLELENLTTQETREILHFHYTTWPDFGVPESPASFLNFLFKVRESGSLSPEHGPVVVHCSAGIGRSGTFCLADTCLLLMDKRKDPSSVDIKKVLLEMRKFRMGLIQTADQLRFSYLAVIEGAKFIMGDSSVQDQWKELSHEDLEPPPEHIPPPPRPPKRILEPHNGKCREFFPNHQWVKEETQEDKDCPIKEEKGSPLNAAPYGIESMSQDTEVRSRVVGGSLRGAQAASPAKGEPSLPEKDEDHALSYWKPFLVNMCVATVLTAGAYLCYRFLFNSNT
partner: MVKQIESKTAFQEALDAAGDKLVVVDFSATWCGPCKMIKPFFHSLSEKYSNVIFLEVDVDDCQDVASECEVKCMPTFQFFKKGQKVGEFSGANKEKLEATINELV

Variants of: B1
Conditions: with thio_human TXN

effect of a mutation on the interaction | Variant
disrupting interaction | MEMEKEFEQIDKSGSWAAIYQDIRHEASDFPCRVAKLPKNKNRNRYRDVSPFDHSRIKLHQEDNDYINASLIKMEEAQRSYILTQGPLPNTCGHFWEMVWEQKSRGVVMLNRVMEKGSLKCAQYWPQKEEKEMIFEDTNLKLTLISEDIKSYYTVRQLELENLTTQETREILHFHYTTWPDFGVPESPASFLNFLFKVRESGSLSPEHGPVVVHAAAGIGRSGTFCLADTCLLLMDKRKDPSSVDIKKVLLEMRKFRMGLIQTADQLRFSYLAVIEGAKFIMGDSSVQDQWKELSHEDLEPPPEHIPPPPRPPKRILEPHNGKCREFFPNHQWVKEETQEDKDCPIKEEKGSPLNAAPYGIESMSQDTEVRSRVVGGSLRGAQAASPAKGEPSLPEKDEDHALSYWKPFLVNMCVATVLTAGAYLCYRFLFNSNT [C215A;S216A]
